# Data published in IntAct's records for PubMed 16882004.
# B1: Neuronal cell adhesion molecule (Mus musculus), Q810U4 (parent)
# chain: MQLKIMPKKKHLSAGGVPLILFLCQMISALDVPLDLVQPPTITQQSPKDYIIDPRENIVIQCEAKGKPPPSFSWTRNGTHFDIDKDPLVTMKPGSGTLVINIMSEGKAETYEGVYQCTARNERGAAVSNNIVVRPSRSPLWTKERLEPIVLQNGQSLVLPCRPPIGLPPAIIFWMDNSFQRLPQSERVSQGLNGDLYFSNVLPEDTREDYICYARFNHTQTIQQKQPISLKVISVDELNDTIAANLSDTEFYGAKSSKERPPTFLTPEGNESHKEELRGNVLSLECIAEGLPTPIIYWIKEDGMLPANRTFYRNFKKTLQITHVSEADSGNYQCIAKNALGAVHHTISVTVKAAPYWIVAPQNLVLSPGENGTLICRANGNPKPRISWLTNGVPIEIALDDPSRKIDGDTIIFSNVQESSSAVYQCNASNKYGYLLANAFVNVLAEPPRILTSANTLYQVIANRPALLDCAFFGSPMPTIEWFKGTKGSALHEDIYVLHDNGTLEIPVAQKDSTGTYTCVARNKLGMAKNEVHLEIKDPTRIIKQPEYAVVQRGSKVSFECRVKHDHTLIPTIMWLKDNGELPNDERFSTDKDHLVVSDVKDDDGGTYTCTANTTLDSASASAVLRVVAPTPTPAPIYDVPNPPFDLELTNQLDKSVQLTWTPGDDNNSPITKFIIEYEDAMHDAGLWRHQAEVSGTQTTAQLKLSPYVNYSFRVMAENSIGRSMPSEASEQYLTKAAEPDQNPMAVEGLGTEPDNLVITWKPLNGFQSNGPGLQYKVSWRQKDGDDEWTSVVVANVSKYIVSGTPTFVPYLIKVQALNDVGFAPEPAAVMGHSGEDLPMVAPGNVRVSVVNSTLAEVHWDPVPPKSVRGHLQGYRIYYWKTQSSSKRNRRHIEKKILTFQGTKTHGMLPGLQPYSHYALNVRVVNGKGEGPASTDRGFHTPEGVPSAPSSLKIVNPTLDSLTLEWDPPSHPNGILTEYILQYQPINSTHELGPLVDLKIPANKTRWTLKNLNFSTRYKFYFYAQTSVGPGSQITEEAITTVDEAGIPPPDVGAGKGKEEWRKEIVNGSRSFFGLKGLMPGTAYKVRVGAEGDSGFVSSEDVFETGPAMASRQVDIATQGWFIGLMCAVALLILILLIVCFIRRNKGGKYPVKEKEDAHADPEIQPMKEDDGTFGEYSDAEDHKPLKKGSRTPSDRTVKKEDSDDSLVDYGEGVNGQFNEDGSFIGQYSGKKEKEPAEGNESSEAPSPVNAMNSFV
# Variants of: B1
# Details: with dlg1_mouse Dlg1, Q811D0
# Chain of dlg1_mouse Dlg1, Q811D0 (Q811D0 whole entry): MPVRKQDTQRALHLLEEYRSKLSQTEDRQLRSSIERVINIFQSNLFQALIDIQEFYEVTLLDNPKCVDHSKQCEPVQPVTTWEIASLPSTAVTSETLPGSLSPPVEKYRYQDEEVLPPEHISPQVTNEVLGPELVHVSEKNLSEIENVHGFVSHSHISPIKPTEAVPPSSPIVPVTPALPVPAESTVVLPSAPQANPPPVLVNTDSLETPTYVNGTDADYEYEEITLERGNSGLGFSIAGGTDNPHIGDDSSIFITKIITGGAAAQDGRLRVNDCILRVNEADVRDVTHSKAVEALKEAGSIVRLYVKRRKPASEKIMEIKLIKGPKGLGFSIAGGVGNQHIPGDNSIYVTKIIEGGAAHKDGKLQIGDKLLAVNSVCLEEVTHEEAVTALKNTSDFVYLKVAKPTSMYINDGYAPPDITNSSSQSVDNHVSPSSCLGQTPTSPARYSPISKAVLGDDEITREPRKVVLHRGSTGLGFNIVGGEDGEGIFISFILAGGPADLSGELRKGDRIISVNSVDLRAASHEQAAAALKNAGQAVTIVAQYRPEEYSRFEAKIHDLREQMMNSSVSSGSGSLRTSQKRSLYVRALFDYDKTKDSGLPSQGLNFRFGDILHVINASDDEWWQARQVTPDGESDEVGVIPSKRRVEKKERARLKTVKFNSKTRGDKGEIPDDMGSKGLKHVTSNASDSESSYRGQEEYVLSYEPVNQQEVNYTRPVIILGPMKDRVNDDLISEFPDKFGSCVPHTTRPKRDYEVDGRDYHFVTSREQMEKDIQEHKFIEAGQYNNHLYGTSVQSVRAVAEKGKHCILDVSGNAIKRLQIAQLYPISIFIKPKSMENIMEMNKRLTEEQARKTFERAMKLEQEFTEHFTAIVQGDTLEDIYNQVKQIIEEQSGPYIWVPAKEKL
row,effect of a mutation on the interaction,Variant
1,disrupting interaction,V1256A
